From IntAct's records for PubMed 23622247

B1: Rho-related GTP-binding protein RhoE (Mus musculus), P61588 (parent)
chain: MKERRASQKLSSKSIMDPNQNVKCKIVVVGDSQCGKTALLHVFAKDCFPENYVPTVFENYTASFEIDTQRIELSLWDTSGSPYYDNVRPLSYPDSDAVLICFDISRPETLDSVLKKWKGEIQEFCPNTKMLLVGCKSDLRTDVSTLVELSNHRQTPVSYDQGANMAKQIGAATYIECSALQSENSVRDIFHVATLACVNKTNKNVKRNKSQRATKRISHMPSRPELSAVATDLRKDKAKSCTVM

Variants of: B1
Conditions: with 1433b_human YWHAB

Row | effect of a mutation on the interaction | Variant
1 | disrupting interaction strength | MKERRASQKLSSKSIMDPNQNVKCKIVVVGDSQCGKTALLHVFAKDCFPENYVPTVFENYTASFEIDTQRIELSLWDTSGSPYYDNVRPLSYPDSDAVLICFDISRPETLDSVLKKWKGEIQEFCPNTKMLLVGCKSDLRTDVSTLVELSNHRQTPVSYDQGANMAKQIGAATYIECSALQSENSVRDIFHVATLACVNKTNKNVKRNKAQRAAKRIAHMPSRPELSAVATDLRKDKAKSCTVM [S210A;T214A;S218A]

Variants of: B1
Conditions: with rhg05_human ARHGAP5, Q13017
Sequence of rhg05_human ARHGAP5, Q13017 (Q13017 whole entry): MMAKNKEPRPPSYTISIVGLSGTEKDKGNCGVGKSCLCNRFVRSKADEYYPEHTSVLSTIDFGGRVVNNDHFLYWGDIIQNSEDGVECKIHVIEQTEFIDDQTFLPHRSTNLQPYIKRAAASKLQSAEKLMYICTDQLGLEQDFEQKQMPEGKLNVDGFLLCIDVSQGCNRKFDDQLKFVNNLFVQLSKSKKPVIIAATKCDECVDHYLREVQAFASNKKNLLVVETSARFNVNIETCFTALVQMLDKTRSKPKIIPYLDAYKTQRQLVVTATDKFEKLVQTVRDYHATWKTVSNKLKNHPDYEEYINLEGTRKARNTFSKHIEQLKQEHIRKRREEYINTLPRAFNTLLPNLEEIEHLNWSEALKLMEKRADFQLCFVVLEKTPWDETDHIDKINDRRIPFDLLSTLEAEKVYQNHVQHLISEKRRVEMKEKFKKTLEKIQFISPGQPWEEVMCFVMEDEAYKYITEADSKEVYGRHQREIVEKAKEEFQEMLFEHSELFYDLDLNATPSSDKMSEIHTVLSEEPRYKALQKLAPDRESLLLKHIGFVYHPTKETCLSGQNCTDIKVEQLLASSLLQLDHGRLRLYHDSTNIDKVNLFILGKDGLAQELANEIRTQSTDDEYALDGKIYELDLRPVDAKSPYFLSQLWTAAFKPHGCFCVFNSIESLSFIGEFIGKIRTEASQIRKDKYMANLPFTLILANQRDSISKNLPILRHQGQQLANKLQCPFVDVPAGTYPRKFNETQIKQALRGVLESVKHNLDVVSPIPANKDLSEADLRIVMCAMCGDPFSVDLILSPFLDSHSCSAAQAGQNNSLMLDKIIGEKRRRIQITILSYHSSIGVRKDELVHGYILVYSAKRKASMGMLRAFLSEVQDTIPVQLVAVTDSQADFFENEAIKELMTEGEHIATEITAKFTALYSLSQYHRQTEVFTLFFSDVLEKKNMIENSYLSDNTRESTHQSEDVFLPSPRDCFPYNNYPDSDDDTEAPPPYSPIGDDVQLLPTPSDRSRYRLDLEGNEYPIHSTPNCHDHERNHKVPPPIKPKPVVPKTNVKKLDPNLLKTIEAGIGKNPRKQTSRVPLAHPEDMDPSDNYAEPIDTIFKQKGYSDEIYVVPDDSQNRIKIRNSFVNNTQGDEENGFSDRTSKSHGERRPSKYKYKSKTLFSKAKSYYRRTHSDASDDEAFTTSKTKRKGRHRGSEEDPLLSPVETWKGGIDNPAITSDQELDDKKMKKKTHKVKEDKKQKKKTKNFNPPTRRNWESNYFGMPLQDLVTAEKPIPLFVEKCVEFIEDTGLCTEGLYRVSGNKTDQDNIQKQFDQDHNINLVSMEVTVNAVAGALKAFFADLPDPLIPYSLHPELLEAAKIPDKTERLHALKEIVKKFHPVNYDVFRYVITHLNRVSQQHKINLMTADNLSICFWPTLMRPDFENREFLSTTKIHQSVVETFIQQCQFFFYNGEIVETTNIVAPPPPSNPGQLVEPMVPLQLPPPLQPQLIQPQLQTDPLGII

Row | effect of a mutation on the interaction | Variant
2 | disrupting interaction strength | MKERRASQKLSSKSIMDPNQNVKCKIVVVGDSQCGKTALLHVFAKDCFPENYVPVVFENYTASFEIDTQRIELSLWDTSGSPYYDNVRPLSYPDSDAVLICFDISRPETLDSVLKKWKGEIQEFCPNTKMLLVGCKSDLRTDVSTLVELSNHRQTPVSYDQGANMAKQIGAATYIECSALQSENSVRDIFHVATLACVNKTNKNVKRNKSQRATKRISHMPSRPELSAVATDLRKDKAKSCTVM [T55V]

Variants of: B1
Conditions: with 1433b_human YWHAB
Remark: another data set of the same source

Row | effect of a mutation on the interaction | Variant
3 | disrupting interaction strength | MKERRAAQKLASKSIMDPNQNVKCKIVVVGDSQCGKTALLHVFAKDCFPENYVPTVFENYTASFEIDTQRIELSLWDTSGSPYYDNVRPLSYPDSDAVLICFDISRPETLDSVLKKWKGEIQEFCPNTKMLLVGCKSDLRTDVSTLVELSNHRQTPVSYDQGANMAKQIGAATYIECSALQSENSVRDIFHVATLACVNKTNKNVKRNKAQRAAKRIAHMPARPELSAVATDLRKDKAKACTVM [S7A;S11A;S210A;T214A;S218A;S222A;S240A]
